The target in one assay is HveC on CHO-HveC cells (UniProt Q15223). In words: cell-based or functional assay.
Another assay addresses HveA on CHO-HveA cells (UniProt Q92956). In words: cell-based or functional assay.

Chain of HveC on CHO-HveC cells (Q15223 31-517 limits assumed): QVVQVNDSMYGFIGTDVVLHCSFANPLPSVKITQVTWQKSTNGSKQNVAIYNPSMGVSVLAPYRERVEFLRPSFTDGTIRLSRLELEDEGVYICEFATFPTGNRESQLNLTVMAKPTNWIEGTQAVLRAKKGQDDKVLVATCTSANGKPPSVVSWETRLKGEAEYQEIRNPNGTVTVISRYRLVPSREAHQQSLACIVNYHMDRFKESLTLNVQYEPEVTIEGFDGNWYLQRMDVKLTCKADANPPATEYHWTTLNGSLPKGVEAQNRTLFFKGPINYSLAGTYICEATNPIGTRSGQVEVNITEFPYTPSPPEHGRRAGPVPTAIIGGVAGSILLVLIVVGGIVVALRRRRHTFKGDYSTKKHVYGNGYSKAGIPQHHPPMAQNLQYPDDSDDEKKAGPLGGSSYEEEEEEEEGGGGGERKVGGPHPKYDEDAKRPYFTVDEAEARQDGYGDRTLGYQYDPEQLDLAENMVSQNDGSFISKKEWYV
Chain of HveA on CHO-HveA cells (Q92956 39-283 limits assumed): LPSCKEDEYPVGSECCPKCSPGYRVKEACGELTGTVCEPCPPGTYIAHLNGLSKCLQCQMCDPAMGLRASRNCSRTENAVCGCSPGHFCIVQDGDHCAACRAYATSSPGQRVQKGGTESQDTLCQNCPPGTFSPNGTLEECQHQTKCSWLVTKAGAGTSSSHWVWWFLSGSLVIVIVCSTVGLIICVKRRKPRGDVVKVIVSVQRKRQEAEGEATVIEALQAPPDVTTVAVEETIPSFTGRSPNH

The substance gD Q27T (ligand) came in with a % Complementation, CHO-HveC with HveC on CHO-HveC cells of 0%. The same substance showed a % Complementation, CHO-HveA in the assay with HveA on CHO-HveA cells of 0%.
With “gD D30H (from UniProt A1Z0Q5 26-394) (ligand)”, the % Complementation, CHO-HveC in the assay with HveC on CHO-HveC cells was 6%. Besides, the % Complementation, CHO-HveA with HveA on CHO-HveA cells is 0%.
As to gD L28P (ligand), in the assay with HveC on CHO-HveC cells, the % Complementation, CHO-HveC was found to be 69%. In the assay with HveA on CHO-HveA cells, this substance registered a % Complementation, CHO-HveA of 0%.
Taken in the same sequence, the figures for gD I40A (ligand) were 0% and 0%.
Taken in the same sequence, the figures for gD Q27G (ligand) were 0% and 0%.
In the assay with HveC on CHO-HveC cells, gD D6A (ligand) returned a % Complementation, CHO-HveC of 99%. Further, in the assay with HveA on CHO-HveA cells, the % Complementation, CHO-HveA turned out to be 0%.
The matching figures for gD Q27P (rid1) (ligand): 83% and 0%.
The matching figures for gD L9R (ligand): 97% and 0%.
In the assay with HveC on CHO-HveC cells, gDΔ6-9 (ligand) came in with a % Complementation, CHO-HveC of 100%. The substance also gave a % Complementation, CHO-HveA with HveA on CHO-HveA cells of 0%.
With gDΔ6-24:GSK (ligand), in the assay with HveC on CHO-HveC cells, the % Complementation, CHO-HveC turned out to be 19%. The substance further displayed a % Complementation, CHO-HveA with HveA on CHO-HveA cells of 0%.
As to gD A7R (ligand), the % Complementation, CHO-HveC in the assay with HveC on CHO-HveC cells was 98%. Further, the % Complementation, CHO-HveA with HveA on CHO-HveA cells was found to be 0%.
In turn, gD K1D (ligand) had a % Complementation, CHO-HveC with HveC on CHO-HveC cells of 100%. For the same substance, the % Complementation, CHO-HveA with HveA on CHO-HveA cells amounted to 100%.
Take gD L44C (ligand): the % Complementation, CHO-HveC in the assay with HveC on CHO-HveC cells was 83%. For the same substance, the % Complementation, CHO-HveA with HveA on CHO-HveA cells was found to be 69%.
Taken in the same sequence, the figures for gD Q27S (ligand) were 9% and 0%.
As to gDΔ21-24 (ligand), the % Complementation, CHO-HveC with HveC on CHO-HveC cells was found to be 100%. The substance further came in with a % Complementation, CHO-HveA in the assay with HveA on CHO-HveA cells of 0%.
Taken in the same sequence, the figures for gD D30V (ligand) were 8% and 0%.
The matching figures for “gD R36I (from UniProt A1Z0Q5 26-394) (ligand)”: 0% and 0%.
In the assay with HveC on CHO-HveC cells, gDΔ17-21 (ligand) came in with a % Complementation, CHO-HveC of 100%. Also, the % Complementation, CHO-HveA in the assay with HveA on CHO-HveA cells was determined as 0%.
The matching figures for gD Q27H (ligand): 14% and 0%.
With “gD L25I (from UniProt A1Z0Q5 26-394) (ligand)”, the % Complementation, CHO-HveC with HveC on CHO-HveC cells was 5%. For the same substance, the % Complementation, CHO-HveA in the assay with HveA on CHO-HveA cells was 0%.
The matching figures for gD L44G (ligand): 8% and 0%.
Taken in the same sequence, the figures for “wild-type gD (HSV-1 strain KOS) (ligand)” were 100% and 100%.
The matching figures for gD H39V (ligand): 66% and 75%.
With gD T29G (ligand), in the assay with HveC on CHO-HveC cells, the % Complementation, CHO-HveC is 100%. In the assay with HveA on CHO-HveA cells, this substance registered a % Complementation, CHO-HveA of 0%.
Taken in the same sequence, the figures for gDΔ2-5 (ligand) were 95% and 0%.
Taken in the same sequence, the figures for gD L28C (ligand) were 100% and 0%.
Regarding “gD L25D (from UniProt A1Z0Q5 26-394) (ligand)”, in the assay with HveC on CHO-HveC cells, the % Complementation, CHO-HveC is 14%. Besides, the % Complementation, CHO-HveA with HveA on CHO-HveA cells worked out at 0%.
The matching figures for gD L44P (ligand): 71% and 53%.
Turning to gD S8A (ligand), the % Complementation, CHO-HveC with HveC on CHO-HveC cells came out at 100%. Besides, the % Complementation, CHO-HveA in the assay with HveA on CHO-HveA cells was 40%.
gD D26V (ligand) returned a % Complementation, CHO-HveC with HveC on CHO-HveC cells of 26%. In the assay with HveA on CHO-HveA cells, this substance gave a % Complementation, CHO-HveA of 0%.
Regarding “gD L25H (from UniProt A1Z0Q5 26-394) (ligand)”, in the assay with HveC on CHO-HveC cells, the % Complementation, CHO-HveC was 12%. Further, the % Complementation, CHO-HveA with HveA on CHO-HveA cells was found to be 0%.
Regarding gD L28G (ligand), the % Complementation, CHO-HveC with HveC on CHO-HveC cells turned out to be 100%. Also, in the assay with HveA on CHO-HveA cells, the % Complementation, CHO-HveA was determined as 0%.
In the assay with HveC on CHO-HveC cells, “gD P32H (from UniProt A1Z0Q5 26-394) (ligand)” registered a % Complementation, CHO-HveC of 100%. Further, in the assay with HveA on CHO-HveA cells, the % Complementation, CHO-HveA came out at 6%.
Taken in the same sequence, the figures for gD L9P (ligand) were 100% and 0%.
Taken in the same sequence, the figures for gD L28S (ligand) were 83% and 0%.
The substance gD D30I (ligand) came in with a % Complementation, CHO-HveC with HveC on CHO-HveC cells of 4%. The same substance registered a % Complementation, CHO-HveA with HveA on CHO-HveA cells of 0%.
With gD T29Y (ligand), the % Complementation, CHO-HveC with HveC on CHO-HveC cells is 100%. This substance had a % Complementation, CHO-HveA with HveA on CHO-HveA cells of 0%.
gD L28F (ligand) had a % Complementation, CHO-HveC in the assay with HveC on CHO-HveC cells of 41%. Also, the % Complementation, CHO-HveA in the assay with HveA on CHO-HveA cells amounted to 0%.
Taken in the same sequence, the figures for gD D6L (ligand) were 98% and 0%.
“gD I40N (from UniProt A1Z0Q5 26-394) (ligand)” returned a % Complementation, CHO-HveC with HveC on CHO-HveC cells of 0%. The % Complementation, CHO-HveA in the assay with HveA on CHO-HveA cells was 0%.
In the assay with HveC on CHO-HveC cells, gD D26S (ligand) came in with a % Complementation, CHO-HveC of 7%. Also, the % Complementation, CHO-HveA in the assay with HveA on CHO-HveA cells came out at 20%.
With “gD L25T (from UniProt A1Z0Q5 26-394) (ligand)”, in the assay with HveC on CHO-HveC cells, the % Complementation, CHO-HveC was 3%. The % Complementation, CHO-HveA in the assay with HveA on CHO-HveA cells turned out to be 0%.
Turning to gD A7L (ligand), the % Complementation, CHO-HveC in the assay with HveC on CHO-HveC cells was found to be 100%. Also, in the assay with HveA on CHO-HveA cells, the % Complementation, CHO-HveA came out at 0%.
gD L9A (ligand) came in with a % Complementation, CHO-HveC in the assay with HveC on CHO-HveC cells of 100%. Also, the % Complementation, CHO-HveA with HveA on CHO-HveA cells was found to be 0%.
In the assay with HveC on CHO-HveC cells, “gD P31G (from UniProt A1Z0Q5 26-394) (ligand)” returned a % Complementation, CHO-HveC of 100%. This substance also gave a % Complementation, CHO-HveA with HveA on CHO-HveA cells of 0%.
Turning to gD Q41P (ligand), the % Complementation, CHO-HveC with HveC on CHO-HveC cells stood at 18%. Besides, the % Complementation, CHO-HveA with HveA on CHO-HveA cells was found to be 0%.
In the assay with HveC on CHO-HveC cells, “gD G33L (from UniProt A1Z0Q5 26-394) (ligand)” registered a % Complementation, CHO-HveC of 79%. For the same substance, in the assay with HveA on CHO-HveA cells, the % Complementation, CHO-HveA is 9%.
For the substance “gD R36D (from UniProt A1Z0Q5 26-394) (ligand)”, the % Complementation, CHO-HveC in the assay with HveC on CHO-HveC cells amounted to 0%. Besides, the % Complementation, CHO-HveA with HveA on CHO-HveA cells was found to be 0%.
In the case of gDΔ10-16 (ligand), the % Complementation, CHO-HveC in the assay with HveC on CHO-HveC cells stood at 100%. This substance had a % Complementation, CHO-HveA with HveA on CHO-HveA cells of 0%.
The matching figures for “gD R36A (from UniProt A1Z0Q5 26-394) (ligand)”: 0% and 0%.
The matching figures for gD^-R (gD A5I) (ligand): 100% and 85%.
As to gD A7H (ligand), the % Complementation, CHO-HveC with HveC on CHO-HveC cells is 100%. Also, the % Complementation, CHO-HveA with HveA on CHO-HveA cells worked out at 80%.
In turn, gD H39Q (ligand) gave a % Complementation, CHO-HveC with HveC on CHO-HveC cells of 100%. Besides, the % Complementation, CHO-HveA in the assay with HveA on CHO-HveA cells was 50%.
On to “gD D26H (from UniProt A1Z0Q5 26-394) (ligand)”, for which, in the assay with HveC on CHO-HveC cells, the % Complementation, CHO-HveC was determined as 11%. Besides, the % Complementation, CHO-HveA with HveA on CHO-HveA cells is 10%.
The matching figures for gD S8L (ligand): 99% and 0%.

For the origin of these results see patent publication US20020090382A1, “Antiviral compounds and methods” (University of Pittsburgh of the Commonwealth System of …, priority 2000, published 2002).
